US11345725B2, “Bis-thioether stapled peptides as inhibitors of PRC2 function” (Research Foundation of the City University of New York, priority 2019, dated 2022)
Starred links: 1 amine or outer side, 2 acyl side, 3 side chain; linkers in the order of their positions; H or OH if unused. Positions of bridges follow the written chain, without caps; N, C: chain ends. Residues, ends and D or L forms follow the SMILES beside them. Octanediyl(1,8) = C(CCCC[*:2])CCC[*:1]; X5 = C(CCC[*:1])CCC[*:2]; X4 = C(CCC[*:2])CC[*:1]; X2 = C(CC[*:1])CC[*:2]; X3 = C(CC[*:2])C[*:1]; X1 = C(C[*:1])C[*:2]

Experiment: circular dichroism
Conditions: deionized water; pH unbuffered; 20 °C; 25 uM

| SMILES | helicity [%] |
| --- | --- |
| CC[C@H](C)[C@H](NC(=O)[C@H](CCC(N)=O)NC(=O)[C@@H](NC(=O)[C@@H]1CSCCCSC[C@H](NC(=O)[C@H](CC(C)C)NC(=O)[C@H](Cc2c[nH]c3ccccc23)NC(=O)[C@H](CCC(=O)O)NC(C)=O)C(=O)N[C@@H](CCC(=O)O)C(=O)N[C@@H](CCCCN)C(=O)N[C@@H]([C@@H](C)O)C(=O)N1)[C@@H](C)O)C(=O)N[C@@H](CCC(=O)O)C(=O)N[C@@H](CCC(=O)O)C(=O)N[C@@H](Cc1ccccc1)C(N)=O (Ac-EWLCEKTCTQIEEF-NH2; linker 4-8 via X1) | 38.4 |
| CC[C@H](C)[C@H](NC(=O)[C@H](CCC(N)=O)NC(=O)[C@@H](NC(=O)[C@@H]1CSCCCCCSC[C@H](NC(=O)[C@H](CC(C)C)NC(=O)[C@H](Cc2c[nH]c3ccccc23)NC(=O)[C@H](CCC(=O)O)NC(C)=O)C(=O)N[C@@H](CCC(=O)O)C(=O)N[C@@H](CCCCN)C(=O)N[C@@H]([C@@H](C)O)C(=O)N1)[C@@H](C)O)C(=O)N[C@@H](CCC(=O)O)C(=O)N[C@@H](CCC(=O)O)C(=O)N[C@@H](Cc1ccccc1)C(N)=O (Ac-EWLCEKTCTQIEEF-NH2; linker 4-8 via X2) | 19.7 |
| CC[C@H](C)[C@H](NC(=O)[C@H](CC(C)C)NC(=O)[C@H](Cc1ccccc1)NC(=O)[C@H](CC(=O)O)NC(=O)[C@H](Cc1c[nH]cn1)NC(=O)[C@H](CCSC)NC(=O)[C@H](CO)NC(=O)[C@@H](NC(=O)[C@@H]1CSCCCCCSC[C@H](NC(=O)[C@H](CC(N)=O)NC(=O)[C@H](CCCNC(=N)N)NC(=O)[C@H](CS)NC(=O)[C@H](CC(C)C)NC(C)=O)C(=O)N[C@@H](CCSC)C(=O)N[C@@H](CC(C)C)C(=O)N[C@@H](Cc2c[nH]cn2)C(=O)N1)C(C)C)C(N)=O (Ac-LCRNCMLHCVSMHDFLI-NH2; linker 5-9 via X2) | 61.6 |
| CC[C@H](C)[C@@H]1NC(=O)[C@@H](NC(=O)[C@H](CC(=O)O)NC(=O)[C@@H](NC(=O)[C@@H](NC(C)=O)[C@@H](C)O)C(C)C)CSCCCSC[C@@H](C(=O)N[C@@H](CC(C)C)C(=O)N[C@@H](CO)C(=O)N[C@H](C(=O)N[C@@H](CC(C)C)C(=O)N[C@@H](C)C(=O)N[C@@H](CCC(=O)O)C(=O)N[C@@H](CCC(=O)O)C(=O)N[C@H](C(=O)N2CCC[C@H]2C(=O)N[C@@H](CCC(N)=O)C(=O)N[C@@H](CC(N)=O)C(N)=O)C(C)C)C(C)C)NC(=O)[C@H](CO)NC(=O)[C@H](C)NC1=O (Ac-TVDCIASCLSVLAEEVPQN-NH2; linker 4-8 via X1) | 23 |
| CC[C@H](C)[C@@H]1NC(=O)[C@@H](NC(=O)[C@H](CC(=O)O)NC(=O)[C@@H](NC(=O)[C@@H](NC(C)=O)[C@@H](C)O)C(C)C)CSCCCCCSC[C@@H](C(=O)N[C@@H](CC(C)C)C(=O)N[C@@H](CO)C(=O)N[C@H](C(=O)N[C@@H](CC(C)C)C(=O)N[C@@H](C)C(=O)N[C@@H](CCC(=O)O)C(=O)N[C@@H](CCC(=O)O)C(=O)N[C@H](C(=O)N2CCC[C@H]2C(=O)N[C@@H](CCC(N)=O)C(=O)N[C@@H](CC(N)=O)C(N)=O)C(C)C)C(C)C)NC(=O)[C@H](CO)NC(=O)[C@H](C)NC1=O (Ac-TVDCIASCLSVLAEEVPQN-NH2; linker 4-8 via X2) | 9 |
| CC[C@H](C)[C@H](NC(=O)[C@H](CCCCN)NC(=O)[C@H](CC(=O)O)NC(=O)[C@@H](NC(=O)[C@@H](NC(C)=O)[C@@H](C)O)C(C)C)C(=O)N[C@@H](C)C(=O)N[C@@H](CO)C(=O)N[C@@H](C)C(=O)N[C@H]1CSCCCCCCCCSC[C@@H](C(=O)N2CCC[C@H]2C(=O)N[C@@H](CCC(N)=O)C(=O)N[C@@H](CC(N)=O)C(N)=O)NC(=O)[C@H](CCC(=O)O)NC(=O)[C@H](CCC(=O)O)NC(=O)[C@H](C)NC(=O)[C@H](CC(C)C)NC(=O)[C@H](C(C)C)NC(=O)[C@H](CO)NC1=O (Ac-TVDKIASACSVLAEECPQN-NH2; linker 9-16 via Octanediyl(1,8)) | 12.1 |
| CC[C@H](C)[C@H](NC(=O)[C@H](CCCCN)NC(=O)[C@H](CC(=O)O)NC(=O)[C@@H](NC(=O)[C@@H](NC(C)=O)[C@@H](C)O)C(C)C)C(=O)N[C@@H](C)C(=O)N[C@@H](CO)C(=O)N[C@@H](C)C(=O)N[C@H]1CSCCCCCCSC[C@@H](C(=O)N2CCC[C@H]2C(=O)N[C@@H](CCC(N)=O)C(=O)N[C@@H](CC(N)=O)C(N)=O)NC(=O)[C@H](CCC(=O)O)NC(=O)[C@H](CCC(=O)O)NC(=O)[C@H](C)NC(=O)[C@H](CC(C)C)NC(=O)[C@H](C(C)C)NC(=O)[C@H](CO)NC1=O (Ac-TVDKIASACSVLAEECPQN-NH2; linker 9-16 via X4) | 8.7 |
| CC[C@H](C)[C@H](NC(=O)[C@H](CCCCN)NC(=O)[C@H](CC(=O)O)NC(=O)[C@@H](NC(=O)[C@@H](NC(C)=O)[C@@H](C)O)C(C)C)C(=O)N[C@@H](C)C(=O)N[C@@H](CO)C(=O)N[C@@H](C)C(=O)N[C@H]1CSCCCCCCCSC[C@@H](C(=O)N2CCC[C@H]2C(=O)N[C@@H](CCC(N)=O)C(=O)N[C@@H](CC(N)=O)C(N)=O)NC(=O)[C@H](CCC(=O)O)NC(=O)[C@H](CCC(=O)O)NC(=O)[C@H](C)NC(=O)[C@H](CC(C)C)NC(=O)[C@H](C(C)C)NC(=O)[C@H](CO)NC1=O (Ac-TVDKIASACSVLAEECPQN-NH2; linker 9-16 via X5) | 13.7 |
| CC[C@H](C)[C@H](NC(=O)[C@@H]1CSCCCSC[C@H](NC(=O)[C@@H](NC(=O)[C@@H](NC(C)=O)C(C)C)[C@@H](C)CC)C(=O)N[C@@H](CCC(=O)O)C(=O)N[C@@H](CCC(=O)O)C(=O)N[C@@H](Cc2ccc(O)cc2)C(=O)N1)C(=O)N[C@@H](Cc1c[nH]c2ccccc12)C(=O)N[C@@H](CCCCN)C(=O)N[C@@H](CCCCN)C(=O)N[C@@H](CC(N)=O)C(=O)N[C@H](C(=O)N1CCC[C@H]1C(=O)N[C@@H](Cc1ccccc1)C(=O)N[C@@H](CC(C)C)C(N)=O)[C@@H](C)O (Ac-VICEEYCIWKKNTPFL-NH2; linker 3-7 via X1) | 12.7 |
| CC[C@H](C)[C@H](NC(=O)[C@@H]1CSCCCCCSC[C@H](NC(=O)[C@@H](NC(=O)[C@@H](NC(C)=O)C(C)C)[C@@H](C)CC)C(=O)N[C@@H](CCC(=O)O)C(=O)N[C@@H](CCC(=O)O)C(=O)N[C@@H](Cc2ccc(O)cc2)C(=O)N1)C(=O)N[C@@H](Cc1c[nH]c2ccccc12)C(=O)N[C@@H](CCCCN)C(=O)N[C@@H](CCCCN)C(=O)N[C@@H](CC(N)=O)C(=O)N[C@H](C(=O)N1CCC[C@H]1C(=O)N[C@@H](Cc1ccccc1)C(=O)N[C@@H](CC(C)C)C(N)=O)[C@@H](C)O (Ac-VICEEYCIWKKNTPFL-NH2; linker 3-7 via X2) | 11 |
| CC[C@H](C)[C@H](NC(=O)[C@@H]1CSCCCCSC[C@H](NC(=O)[C@@H](NC(=O)[C@@H](NC(C)=O)C(C)C)[C@@H](C)CC)C(=O)N[C@@H](CCC(=O)O)C(=O)N[C@@H](CCC(=O)O)C(=O)N[C@@H](Cc2ccc(O)cc2)C(=O)N1)C(=O)N[C@@H](Cc1c[nH]c2ccccc12)C(=O)N[C@@H](CCCCN)C(=O)N[C@@H](CCCCN)C(=O)N[C@@H](CC(N)=O)C(=O)N[C@H](C(=O)N1CCC[C@H]1C(=O)N[C@@H](Cc1ccccc1)C(=O)N[C@@H](CC(C)C)C(N)=O)[C@@H](C)O (Ac-VICEEYCIWKKNTPFL-NH2; linker 3-7 via X3) | 11.5 |
